Measured values reported in patent US20180296701A1.

Target: CAR (receptor of the wild-type Ad) (human) (UniProt P78310)
Test: cell-based or functional assay

UniProt P78310, sequence (P78310 20-365): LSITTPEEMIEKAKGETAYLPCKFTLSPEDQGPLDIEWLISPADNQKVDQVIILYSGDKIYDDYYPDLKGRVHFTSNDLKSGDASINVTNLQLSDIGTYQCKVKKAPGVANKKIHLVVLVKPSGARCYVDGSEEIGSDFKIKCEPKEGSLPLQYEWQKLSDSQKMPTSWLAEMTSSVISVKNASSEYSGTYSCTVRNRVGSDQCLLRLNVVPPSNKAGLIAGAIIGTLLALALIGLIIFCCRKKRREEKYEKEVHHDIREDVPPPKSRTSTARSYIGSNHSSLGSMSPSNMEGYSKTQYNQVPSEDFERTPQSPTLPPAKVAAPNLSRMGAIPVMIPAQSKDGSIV

Ad knob protein
decrease of intracellular introduction efficiency (GFP expression, flow cytometry) of wild-type Ad (naked dE1/GFP) in MIA PaCa-2 cells pre-treated with knob protein at 0.2 ug/mL: 76% | decrease of intracellular introduction efficiency (GFP expression, flow cytometry) of wild-type Ad (naked dE1/GFP) in MIA PaCa-2 cells pre-treated with knob protein at 1 ug/mL: 92%
